Laboratory results published in EP2295560A1, “Directed evolution of arginine deiminase for increased activity at physiological pH” (priority 2009, dated 2011).

Test system: N=C(N)NCCC[C@H](N)C(=O)O
Experiment: Determination of kcat and Km (citrulline colorimetric assay, purified enzyme)
Type: biochemical, Pseudomonas plecoglossicida CGMCC2039
Details: 0.5 M phosphate buffer, 0.2 mM to 10 mM of arginine
Description: The kcat and Km values were determined from initial velocity data measured as a function of substrate concentration. Enzyme reaction was carried out at 37°C in a water bath. After 10 min preincubation at 37"C, the enzyme reaction was initiated by addition of purified enzyme (50 µl, 0.2-0.5 µM) to the substrate solution (200 µl, 0.2 mM to 10 mM of arginine, 0.5 M phosphate buffer, pH 7.4) in deep well plates. The reaction mixture was incubated (37°C) and every two minutes reaction mixture (30 µl) of each well was transferred to acid-ferric solution (30 µl) to stop the enzyme reaction. The color development was subsequently performed in 96-well PCR plate. Ferric-acid solution (90 µl) and DAM-TSC solution (15 µl) were added to each well. The 96-well PCR plate was then incubated (70°C, 30 min) in thermal cycler (Eppendorf Mastercyler gradient) for color development, followed by incubation in ice water to stop color development. Absorbance was measured at 530 nm using a microtiter plate reader (SPECTROstar Omega, BMG LABTECH, Offenburg, Germany). The initial velocity data obtained were fitted to the equation v = Vmax[S]/([S] + Km) (where v is the initial velocity, Vmax the maximum velocity, [S] the substrate concentration, and Km the Michaelis constant) using GraphPad Prism software (GraphPad software, San Diego, CA, USA). The kcat was calculated from the ratio of Vmax, and enzyme concentration.
For kinetic characterization of ADI variants the citrulline production was maintained between 0.2-0.8 mM. […] Figure 4 summarizes the kcat and Km values of wild type PpADI, identified variants M1 […] and M2 (K5T D44E H404R) which were expressed in shaking flasks cultures and purified using a two step procedure (anion exchange follows by gel filtration). Both variants M1 and M2 show an increase in kcat and Km for citrulline production at pH 7.4.

## Pseudomonas plecoglossicida arginine deiminase (PpADI) variant M1 (H404R) (Pseudomonas plecoglossicida; H404R)
other: M1, pH 7.4, 37°C
  Km: 1200 µM

## Pseudomonas plecoglossicida arginine deiminase (PpADI) variant M2 (K5T D44E H404R) (Pseudomonas plecoglossicida; D44E/H404R/K5T)
other: M2, pH 7.4, 37°C
  Km: 2500 µM

## Pseudomonas plecoglossicida arginine deiminase (PpADI), wild type, SEQ ID No. 1 (Pseudomonas plecoglossicida)
other: wild type PpADI, pH 7.4, 37°C
  Km: 700 µM
